Patent publication US20130316404A1

Target: IL-10 receptor (IL-10R) on mouse splenocytes (mouse) (UniProt Q61727)
Assay: cell-based or functional assay

Sequence of UniProt Q61727 (Q61727 17-575): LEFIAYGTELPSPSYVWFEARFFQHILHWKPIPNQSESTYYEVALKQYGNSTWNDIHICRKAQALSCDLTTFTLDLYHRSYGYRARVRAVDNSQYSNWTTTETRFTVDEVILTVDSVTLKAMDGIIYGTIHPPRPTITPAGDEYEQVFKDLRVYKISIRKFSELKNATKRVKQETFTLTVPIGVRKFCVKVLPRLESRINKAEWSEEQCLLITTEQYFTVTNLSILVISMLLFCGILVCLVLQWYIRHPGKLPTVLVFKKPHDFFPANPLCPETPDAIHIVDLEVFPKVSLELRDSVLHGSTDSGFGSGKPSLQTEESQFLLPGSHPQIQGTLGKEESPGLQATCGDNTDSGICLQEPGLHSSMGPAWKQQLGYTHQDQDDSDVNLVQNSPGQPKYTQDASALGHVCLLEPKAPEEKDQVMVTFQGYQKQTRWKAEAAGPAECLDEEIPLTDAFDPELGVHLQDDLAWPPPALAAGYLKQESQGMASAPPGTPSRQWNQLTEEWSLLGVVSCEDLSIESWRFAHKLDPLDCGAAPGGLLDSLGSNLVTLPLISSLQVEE

STAT3 phosphorylation in mouse splenocytes (Western blot), concentration giving equal signal | Substance
100 ng/mL | recombinant wildtype mouse IL-10 expressed in human HEK293 cells (from UniProt P18893 19-178) (ligand)
10 ng/mL | stabilized recombinant IL-10 dimer (two wildtype murine IL-10 monomers joined C-terminus to N-terminus by a 7 amino acid peptide linker, one continuous polypeptide) (from UniProt P18893 19-178) (ligand)
